Measurements: patent publication US20130231265A1

What was measured:
[1] = test system: T1, Abl artificial substrate peptide, GGDEDDNDEVAYQAPFEDGGKbiotinGG
T1 sequence: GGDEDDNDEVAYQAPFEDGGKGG

[2] = test system: Syk biosensor peptide GGDEEDYEEPDEPGGKbiotinGG-betaNpa-RKKRRQRRR (SAStide biosensor)
[3] = test system: T2, Src family artificial substrate peptide A, GGEEDEDIYEELDEPGGKbiotinGG
T2 sequence: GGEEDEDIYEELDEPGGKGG

[4] = target: Syk biosensor peptide …biotinGG-betaNpa-… (SAStide biosensor); assay: cell-based or functional assay

Sequence of Recombinant Abl kinase (Millipore) (P00519 whole entry): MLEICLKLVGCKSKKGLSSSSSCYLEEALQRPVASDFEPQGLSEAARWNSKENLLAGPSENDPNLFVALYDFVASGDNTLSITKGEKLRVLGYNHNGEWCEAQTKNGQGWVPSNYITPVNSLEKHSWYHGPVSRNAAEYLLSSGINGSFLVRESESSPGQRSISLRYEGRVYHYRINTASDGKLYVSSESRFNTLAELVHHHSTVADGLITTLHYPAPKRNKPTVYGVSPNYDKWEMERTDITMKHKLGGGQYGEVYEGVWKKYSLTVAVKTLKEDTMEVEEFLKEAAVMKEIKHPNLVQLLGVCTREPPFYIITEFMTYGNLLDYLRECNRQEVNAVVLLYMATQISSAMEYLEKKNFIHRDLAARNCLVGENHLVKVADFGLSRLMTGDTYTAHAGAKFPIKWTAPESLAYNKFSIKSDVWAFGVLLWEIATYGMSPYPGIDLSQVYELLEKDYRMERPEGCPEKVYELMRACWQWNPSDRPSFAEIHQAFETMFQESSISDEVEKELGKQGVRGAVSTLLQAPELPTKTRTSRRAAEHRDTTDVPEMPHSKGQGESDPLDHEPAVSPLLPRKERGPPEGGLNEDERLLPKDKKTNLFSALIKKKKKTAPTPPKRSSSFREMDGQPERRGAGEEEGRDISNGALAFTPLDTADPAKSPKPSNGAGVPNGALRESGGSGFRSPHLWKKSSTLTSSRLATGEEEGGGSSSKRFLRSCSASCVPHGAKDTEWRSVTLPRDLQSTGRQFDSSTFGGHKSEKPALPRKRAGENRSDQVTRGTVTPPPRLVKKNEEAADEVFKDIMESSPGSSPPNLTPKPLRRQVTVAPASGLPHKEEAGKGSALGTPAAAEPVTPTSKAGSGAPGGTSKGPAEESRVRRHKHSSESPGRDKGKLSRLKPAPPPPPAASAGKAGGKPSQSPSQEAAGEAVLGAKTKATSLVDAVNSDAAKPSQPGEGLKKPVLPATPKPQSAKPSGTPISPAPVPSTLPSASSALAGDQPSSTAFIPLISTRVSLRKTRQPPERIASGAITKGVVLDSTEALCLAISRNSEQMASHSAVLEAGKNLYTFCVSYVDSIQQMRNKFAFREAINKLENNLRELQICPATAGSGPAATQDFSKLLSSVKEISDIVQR

Substance | in vitro kinase assay, terbium-sensitized luminescence, confirmed by ELISA-based Amplex Red chemifluorescent assay [1] | in vitro kinase assay, ELISA-based antiphosphotyrosine (4G10) chemifluorescence signal [2] | also measured
Recombinant Abl kinase (Millipore) | ABStide was specific for Abl against the Src-family kinase, Hck | none of which produced any significant signal for phosphopeptide | –
Recombinant Hck | ABStide was specific for Abl against the Src-family kinase, Hck | – | in vitro kinase assay, time-resolved Tb3+ luminescence, percent phosphorylation against time [3]: These data show that enzymatic phosphorylation of SFAStideA can be detected using time-resolved Tb^3+ luminescence
Recombinant Lyn kinase (Millipore) | – | none of which produced any significant signal for phosphopeptide | –
EGFP-conjugated Syk (Syk-EGFP) isolated from DT40 chicken B cells stably expressing Syk-EGFP (enzyme) | – | – | phosphorylation of the biosensor peptide in Syk(-/-) DT40 cells reconstituted with Syk-EGFP, BCR stimulation by IgM, over unstimulated cells [4]: 2 fold; phosphorylation of the biosensor peptide in Syk(-/-) DT40 cells reconstituted with Syk-EGFP, H2O2 with or without BCR stimulation, over control [4]: 12 fold
EGFP-conjugated Syk (Syk-EGFP) isolated from DT40 chicken B cells stably expressing Syk-EGFP | – | – | in vitro kinase assay, ELISA-based antiphosphotyrosine (4G10) chemifluorescence signal over time [2]: A substantial increase in signal over time was observed, demonstrating that SAStide was phosphorylated by Syk in vitro; in vitro kinase assay, time-resolved Tb3+ luminescence, percent phosphorylation against time [2]: These data show that enzymatic phosphorylation of SAStide can be detected using time-resolved Tb^3+ luminescence
Recombinant Src kinase (Millipore) | – | none of which produced any significant signal for phosphopeptide | –
